Assay results: the DeepSol protein solubility set

Experiment: soluble on expression in E. coli; label from the status in PepcDB or PDB records

Q: Which “soluble on expression in E. coli” value does the source give for “MSQQVIIFDTTLRDGEQALQASLSVKEKLQIALALERMGVDVMEVGFPVSSPGDFESVQTIARQVKNSRVCALARCVEKDIDVAAESLKVAEAFRIHTFIATSPMHIATKLRSTLDEVIERAIYMVKRARNYTDDVEFSCEDAGRTPIADLARVVEAAINAGATTINIPDTVGYTMPFEFAGIISGLYERVPNIDKAIISVHTHDDLGLAVGNSLAAVHAGARQVEGAMNGIGERAGNCSLEEVIMAIKVRKDILNVHTAINHQEIWRTSQLVSQICNMPIPANKAIVGSGAFAHSSGIHQDGVLKNRENYEIMTPESIGLNQIQLNLTSRSGRAAVKHRMDEMGYKESEYNLDNLYDAFLKLADKKGQVFDYDLEALAFIGKQQEEPEHFRLDYFSVQSGSNDIATAAVKLACGEEVKAEAANGNGPVDAVYQAINRITDYNVELVKYSLTAKGHGKDALGQVDIVANYNGRRFHGVGLATDIVESSAKAMVHVLNNIWRATEVEKELQRKAQHNENNKETV” here?
A: not soluble

Q: With “MSLVSLPGLPAMISEISKRNNLPTTAVEEALREALLKGYERFRRSQLMGHQFPEEYFNNFEVELDTEEEGFRVLSTKRIVEEVENSDQQISLKEVLEVAEEAQLGDEVVLDVTPEQKDFGRMAAIQTKQVLLQKLRDQQRKIIQEEFQDLEGTVLNARALRFERQSIIVAVQSSFGQPEVEAELPKREQLPNDNYRANSTFRVYLKRVREGSQRGPQLVVSRAAAGLVVDLFSVEVPEIEEEVVRIVAVAREAKPPSPSVGPRTKIAVDTLERDVDPVGACIGARGSRIHAVVNELRGEKIDVIRWSPDPATYIAQALSPARVDQVYLIHAEERHALVIVAEDQLSLAIGKEGQNVRLAARLTGWKIDIKDPETYARDKEAIEQSILERAAASAQARAEREAAEQEAQAKLEAEMAALEAEEAEELEETPEAIAEVEEEVEEWDQDQGPELGEEEELSLEHHHHHH” as the sequence, how does the “soluble on expression in E. coli” value read?
A: soluble

Q: For “MRQHAAPCTQLITWSIEMDNALDFLLEQAQESEDKAVLALSKARSELDSYYHQLRQIEQYRLEYCQQLVERGKSGLTASQYGHLNRFLTQLDETLAKQKSAEQHFRLQVENCEQHWMNMRQKRKSYQWLMEKKQTERQLLQEKREQKQMDEFSTLMFNRRRLSS”, which “soluble on expression in E. coli” value is on record?
A: not soluble

Q: Which “soluble on expression in E. coli” value does the source give for “MRILEKNHGKSRVRFNCTHPIKPAAWVLAANVSLLGCAYAATDENNSQKKERENNPANTTITVTASPLRHAGVTEDSGSYNTSSMSTATGLNISARETPQSVSVLTKQRMRDQNLNSVESAVNNITGISVRQFDSDRFGFTSRGMAVNNVMRDGVATFYDTRFNYGDNTLDTDMFDRIEVVRGAAGLMAGPGNPSAVINLVRKRPTQDFRGSVSAGVGSWEKWRTALDISGPLNSEGSVRGRFVTAYEDKNSFVNRYDQSKNPFYGILEIDVTPNTLFTFGADTQRTLTRGGMFGGLPLFNSAGGRTNYAQSATTASDWASAETRTQTLFSSLQHNFDNGWNIKGTFTFDNDKLRQDVMWPTGYPDPQTNIGMRPGSLSLIDGARRQQNYDIQVNGQYSLFGRQHQLGLGWNRQRQNIDNDYYLATCNATRTCPDLGDFTQPGWQYPKPVWSDKRAYGSKGRSDQSSQYVVTQLSLIDPLTLILGGRLTTWETRGDNFGTPQNARYKNEFVPYSGLTYDINRDLSVYTSYTEIFNPENRRDRNNTLLAPVSGQNYEAGLKGVAFDNSLDYSLAVFEIRQNNMPVPDTTAPRLPDNSQPYFAVDGTKTRGFEAEVSGKMTEDWNISAGYTQYNVKLPSSNTQTPVTPVTPRKVLKLFTTYTLPGQLSDLTLGGGVNWQSQIARNLSSPIGIQQIGQGSFAIYSLMSRYQFTPQLSLTVNLDNLFNQHYYTQIGQYNQYLLGAPRNVDATVRYTF” here?
A: not soluble

Q: Which “soluble on expression in E. coli” value does the source give for “MPAILSRVAPRTFNLVGSRLMASAARLETVPREEIHKEYDRKKTFYHRDLEIQLAGPTQLKTKPLDPTKLKFGHTYADYMMTCDWDAERGWHHPKIEPIGELKIHPGAKVLHYASELFEGMKAYRGIDNKIRMFRPEMNMARMKRTALRAALPDFDSEEMINVLTELLRLDQEWVPNSDVCSLYLRPTLIGTDPTLGVGCATEAKMFVITGPVGAYYSTGFQPVSLLADSRFIRAFPGGVGAYKMGCNYAPTIWVGKEAASKNCQQVLWLYGENEDLTEVGTMNIFLFWKNEEGDMELITPPLHRGLILPGVTRDSLLELGREWGEYKVTERTLNMEEVKKALSEKRLYEMFGSGTACVVSPVGKILYHNKVTDEYEELHIPTMSSKFGVMQKFYNTINDIQYGRIIKDGWMRDI” here?
A: not soluble

Q: With “MGSDKIHHHHHHMCRILGYLGTPVLLEDLLYAPDSSLLNQTIGAQMLQMLNLAGFGMAAWDPASHDPHLPFRYRTTQVALFDRNLKALAGKLRPGALLAHIRGVPYNSTVQINEQNCHPFRFEGVPLAMAHNGDLAGFREMRFDLAPHVRPEFARQIQGSTDSEWIYALAVSALDDPAGVNEPDAILAAIRRALSILRDARARHGITRSSSTNLMFCDGVNLVAVRFTFDFGRFDAGKLQGTTEYLSMWYTFGRDYGLHDGEWKLTGGAASADSVMVASEPLTRDFATWIEVPEYSALIVRHEGARRRAEIHALEV” as the sequence, how does the “soluble on expression in E. coli” value read?
A: not soluble

Q: For “MGSDKIHHHHHHMIKSISTGRTQQGYFSPVEKQMFGAALLADPDTSSPFSDVLSIAESGCSSSLLQQLTSVTKRFRHLKPEQYLLRQQDQFDSLFVVKKGALKSYRLTPEGEEIVTGFYMEGDVIGAGGLGNHKHFYSVVALEPSSLYEIPFAKLLQQSAMEPIVQQLMLKLLSQEMQADQSLRLIQLKQVKAAIASLILNIANRLTATQITLPMSRVDIANLLGVASETVCREFTRLQKQGLLSVNRKHIVINDLPQLQLAAGGDCY”, which “soluble on expression in E. coli” value is on record?
A: not soluble

Q: With “MSLKNLDINIVSEVRRIDNGRLDIPVYFSVCGDDASQYTGTKKQMGKGASPIQSEASACMELAERFSFFSFSKNADNFLLGDYEEMRAAGYPVLDMEHLLKSVHDTHTTVAQLEKLLAGIPMQWTWATKMTGEEGEVLIPFSWFFAINEFNGPSAGNTQEEAALQGLCEIVERDVCSRINRDKLPTAKIDVETIKDPVAVELLEKFAKNNIEVYLNDFSLETGIASVGALAIDRSTFPEKSEIVYTAGTTPNPEKAIIRAITEVAQLAGDFNTGSNYIASGLPKPLSMSEVTYLTETADQVTIDEMVDISDDNIYTEVKNCLDSLKNNGFDVYMIDVCHPQLQIPALYTIIPGAHFRERSMICNAGLFCAKLLVERIEDPAEQEVKLGEMSVLEGHHHHHH” as the sequence, how does the “soluble on expression in E. coli” value read?
A: not soluble

Q: With “MGSDKIHHHHHHMPEPKQETDFTAPAFRWENQQLKAIYTPKNIYLDDLKGIERQKEKIIQNTLQFLNGLPANDVLLTGSRGTGKSSIVRALLTEYAPQGLRLIEIERDDLADLPKIQKIIQNRPEKYIVYCDDLAFNAEDENYRSLKSVLDGSLQSGSTNFIIYATSNRRHLLPEFMHENTPVTKVDVPQYTELHPQEAIEEKISLSDRFGLWLSFYPMDQNLYLEIVEHYLDKANMPFNDEVRAESLRWCQMRGQRSGRAAYQFSKHWIGLNALKDLSNN” as the sequence, how does the “soluble on expression in E. coli” value read?
A: not soluble

Q: With “MGSDKIHHHHHHMPPAKTQEFDPSRIKEPNSPSVITKAATLMDVLRTEGPTNSARLAEVLGEPISSVYRMLHTLTAIGWVEQDGKRGSYRVGLAMLTLAELQLRHMDLRKIAALTMRKIHALTGETTFLCVRHGIRAVCIERVDGDRVNSRVLQLGTSLPLHVGAAPRALLAFEGRRAWETYATNLGFEGHNWSKGPSRGELFQHLDEDRDKGFCLVDNEITPGIAAVGAPIYNHRGEVVASLSMSGLRDGILSDTTDYSAVELILQGSAEISQALGATIEHNGGNQKLPQVTPLSIVV” as the sequence, how does the “soluble on expression in E. coli” value read?
A: not soluble

Q: For “MSLRDYRYSDAHVHYVDFFQESEGMPRLLEAMDKGRVDHVMLSGVAVAKKWHKDEPKRPRYYAGDDAGAYWYSATDVIVAAAVKSLPAEQRRRVHPFLTGFNPTDKNADAHIRRMLELDPGLWQGIGEIFTRHDDLTALTYGDVPRANNEALARVYHLAAEFDLPVLLHANVTSKRERNPLYLAEIEEPLRNHPHVRFIWAHAGTSMEIHRHQKKLDFLLPTLRRLLQRYPNLYIDLSWSVLRPYLLDEQGKPDPQWLALVERFPQRFMLGSDVVGQFDSLPELMASFDPFLDALPEQVARQVARDNFLAVLPREGHHHHHH”, which “soluble on expression in E. coli” value is on record?
A: soluble

Q: Which “soluble on expression in E. coli” value does the source give for “MYILVENAVTSKQLVTGVRTEPHYRYAGYYLKAYEIVANQERDKTKYESLEPAIKALFTLDSEHEKKVRTQLENLKLLTKFKFTGIYTESVDRYNKAVVLQDKGKTEDAETATTNAQT” here?
A: not soluble

Q: For “TKDFEWSSTINAAYQKDEIVELANGKQDDISNAWFIGESINVFYGTASDGLWQESDAAEMAKFNANGHKFEAGMVKPVDQDGNYIIDSNDRIILGNKNPKWVLGWSNTFNYKGLELGIELNGRFGYMVDTGGEGQYGMYNQREISYWTPDNTGADYQKPIYSTAGGDAYSSLLGFKDASFIKIRNISLGYNFNSKALKNIGISSLKLYAQAKNIGNLYSSVDFMDLDLGTTYYNRGFTFGLQVGF”, which “soluble on expression in E. coli” value is on record?
A: not soluble

Q: For “MDRNFKLRQMFSDYLDNKNSNSTHTPPVRVHYPLIATMSPADKARFTVKKITEVEGEVLDAPLENAHPVFFAEPQFELRWYNKPDSLAGRFQTNAEAETTSKLAQRLLTLFLKTEMLESAFFKYDDIRAIRVFFMDDREMATDRLMAILDNILSVSMTKLGHFSDKMSVTVDYELRAFMSDQKKAKRLVLEAMLKYPEFIPDSWGGESAILKWKEMKEIDVRRREADIKEMAETERKEKEKVEKNKMEMTEKIKKKDEDEKAKKEKERIDKEEKIKKEVEEAEKKKKEEKEKRRKEVKKNREEQLSINPEMSRNDKKDVVEEKSCLDKGAKDAQKKKKQQDVVDKKKEKRKLKKTRTMEASRSREVSHEEHHQPPVLSTLATPSPVPSPSVPPTAPPSTPRKPMFGAVSQFLSGRKRREPSAEKIVEPPSKNSAAATKKTVRK”, which “soluble on expression in E. coli” value is on record?
A: not soluble

Q: Which “soluble on expression in E. coli” value does the source give for “MPILFDCNAIASQVLKDEASALLESVGQFQKPNDLEAIVKLILKSQENGGKLVIVGVGKSALVAQKIVASMLSTGNRSAFLHPTEAMHGDLGMVEKNDVVLMISYGGESLELLNLVSHLKRLSHKIITFTKSPNSSLSKLGDYYLSLKIQKEACPINTAPTTSTTLTLALGDVLMACLMRAKNFSQEDFASFHPGGLLGKKLFVKVKDLLQTTNLPLIAPSTSFKDALIEMSEKRLGSAILVNEANELVGVLSDGDVRRALLKGVSLKSEVRHFATLKPKSFKNLDALLLEALEFLERHKIQLLVCVDDHNKVLGVLHLHQLLELGLKA” here?
A: not soluble

Q: For “MFCLETTFLIDLLRGRDEALKFYAKIRDSKLYTTSISAWELLRGPKLIGKDKEFEVAVELLESLDVLPFSFNSAKIAVEIEKDLREKGMEVNLIDVLIASVAMEHSLKLVTRDEHFSRIKGLEVERYRPE”, which “soluble on expression in E. coli” value is on record?
A: soluble

Q: With “MSLNEFPSRPIKLVVPYPAGGTLDIVGRNIAKMAEASLGEPIVADNVPGASGVIAHSQIARAPADGYTIGMSGLSPLVLAPHQYKNLPYSPLKDLSYVACFGETPLVLNVAISLPVKTVQELVAYAKANPGKLNYGSAGIGNASYLAAALFARQAGIEISHVPYKGNAPAMIDLVGGQIPILFDPPQTTLPQAATGKVRPLAVTSSQRFPGLPTLPTIAEAGWANYEFSIWYAMVAPAGVTLPPKNVSLAEWFNASKENGNDEDSAGALHAGIQAAARATAGTTPAARPCSVREGHHHHHH” as the sequence, how does the “soluble on expression in E. coli” value read?
A: not soluble

Q: Which “soluble on expression in E. coli” value does the source give for “MAHHHHHHMIRKIIILMFTFFSNIHNEKIYHHKQRRKFLKGPLGYLNRNVIQKKHYNLYAKKFINYKEIQIQRINDYRKRSGVDKNNINYNLRDTYNYHETHLFVRNEVLPTLAKIENENLKEKEKNKEIFRNINDYNSNFTRQTFLQFLMDLYNIFLKIDDLFLENKTYFSILIYNGPMQLTNHLYDDIIYVSSVVENSDDVSPSEYCMEYISHLENLCEENKLSFLAHAYVFYKNFHLSKEHLLKSICKYLNIIKKLKSSTYVADVENFEVSQKCFLHLLFCLNKMSRKWSRWEKDNFLASLHNATNKMMILTKHFEKVKS” here?
A: not soluble
